Experimental data: PMC7046635, “A combined experimental and modelling approach for the Weimberg pathway optimisation” (Nature Communications, 2020)

What was measured:
purified protein [1] = substrate: NC(=O)c1ccc[n+]([C@@H]2O[C@H](COP(=O)(O)OP(=O)(O)OC[C@H]3O[C@@H](n4cnc5c(N)ncnc54)[C@H](O)[C@@H]3O)[C@@H](O)[C@H]2O)c1; experiment: purified protein; type: biochemical, Caulobacter vibrioides; conditions: 100 mM HEPES/NaOH pH 7.5, 37 °C, varied: cofactor
[2] = substrate: NC(=O)c1ccc[n+]([C@@H]2O[C@H](COP(=O)(O)OP(=O)(O)OC[C@H]3O[C@@H](n4cnc5c(N)ncnc54)[C@H](O)[C@@H]3O)[C@@H](O)[C@H]2O)c1; experiment: purified protein, by the assay type; set-up: initial rate kinetics of purified recombinant enzyme, classical Michaelis-Menten fit
Excerpt: The five genes of the D-xylose operon, i.e., CCNA_00862–00866, were amplified by PCR using gene-specific primers (Supplementary Table 1) and the genomic DNA of C. crescentus NA1000 as template. The PCR products were cloned into pET (Novagen) expression vectors (Supplementary Table 1) and successful cloning was confirmed by sequencing (LGC genomics, Berlin). For expression, the respective plasmids were transformed into the E. coli BL21-pRIL (DE3) or Rosetta (DE3, Stratagene) (Supplementary Table 1). Overexpression was performed in LB medium containing the appropriate antibiotic. The cells were grown at 37 °C to an OD600 of 0.6–0.7 and induced with 1 mM isopropyl-β-D-thiogalactopyranoside. After induction, the cultures were further incubated at 37 °C for 4 h or at 30 °C or at 21 °C for 18–22 h (Supplementary Table 1), respectively. Cells were collected by centrifugation (15 min, 8630 × g, 4 °C) and the pellets were stored at −70 °C. Due to the choice of the vectors, all of the C. crescentus enzymes were N-terminally histidine tagged. The recombinant L-isoleucine dioxygenase from B. thuringiensis (BtDO) contained a C-terminal 6× histidine tag[47]. […] For XLA and KDXD, the inhibition constants for D-xylonate and KGSA, respectively, had to be fitted based on the conversion data, as these enzymes are analysed in coupled enzyme assays. […]

purified protein [3] = substrate: NC(=O)c1ccc[n+]([C@@H]2O[C@H](COP(=O)(O)OP(=O)(O)OC[C@H]3O[C@@H](n4cnc5c(N)ncnc54)[C@H](OP(=O)(O)O)[C@@H]3O)[C@@H](O)[C@H]2O)c1; experiment: purified protein; type: biochemical, Caulobacter vibrioides; conditions: 100 mM HEPES/NaOH pH 7.5, 37 °C, varied: cofactor
purified protein [4] = substrate: O=CCCC(=O)C(=O)O; experiment: purified protein; type: biochemical, Caulobacter vibrioides; conditions: 100 mM HEPES/NaOH pH 7.5, 37 °C, co-substrate NAD+
purified protein [5] = substrate: O=CCCC(=O)O; experiment: purified protein; type: biochemical, Caulobacter vibrioides; conditions: 100 mM HEPES/NaOH pH 7.5, 37 °C, NAD(P)+
purified protein [6] = substrate: O=CCCCC=O; experiment: purified protein; type: biochemical, Caulobacter vibrioides; conditions: 100 mM HEPES/NaOH pH 7.5, 37 °C, NAD(P)+
purified protein [7] = substrate: O=C1O[C@H](CO)[C@H](O)[C@H]1O; experiment: purified protein; type: biochemical, Caulobacter vibrioides; conditions: 100 mM HEPES/NaOH pH 7.5, 37 °C, 5 mM NAD+
purified protein [8] = substrate: O=C(O)C(=O)C[C@H](O)CO; experiment: purified protein; type: biochemical, Caulobacter vibrioides; conditions: 100 mM HEPES/NaOH pH 7.5, 37 °C, 5 mM NAD+

B1: D-xylose dehydrogenase (XDH) (Caulobacter vibrioides NA1000) (protein)
chain: MSSAIYPSLKGKRVVITGGGSGIGAGLTAGFARQGAEVIFLDIADEDSRALEAELAGSPIPPVYKRCDLMNLEAIKAVFAEIGDVDVLVNNAGNDDRHKLADVTGAYWDERINVNLRHMLFCTQAVAPGMKKRGGGAVINFGSISWHLGLEDLVLYETAKAGIEGMTRALARELGPDDIRVTCVVPGNVKTKRQEKWYTPEGEAQIVAAQCLKGRIVPENVAALVLFLASDDASLCTGHEYWIDAGWR
notes: full-length gene in pET vector, N-terminal His tag, E. coli expression, Ni-TED and size exclusion
**Q.** With B1 as the protein, how does the Km (purified protein [1]; co-substrate D-xylose) read?
**A.** 160 µM

**Q.** What about the Vmax (purified protein [1]; co-substrate D-xylose) of the same protein?
**A.** 120 µmol/min/mg

**Q.** What about the kcat (purified protein [1]; co-substrate D-xylose) of the same protein?
**A.** 57 s⁻¹

**Q.** What about the kcat/Km (purified protein [1]; co-substrate D-xylose) of the same protein?
**A.** 356000 M⁻¹ s⁻¹

**Q.** And the Km [2]?
**A.** 170 µM

B2: α-Ketoglutarate semialdehyde dehydrogenase (KGSADH) (Caulobacter vibrioides NA1000) (protein)
chain: MTDTLRHYIGGERVAADAPAESLNPSNTNDVVAKVPMGGQAEVDAAVDAARKAFPAWADASPEVRSDLLDKVGSTIIARSADIGRLLAREEGKTLAEGIGETVRAGRIFKYFAGEALRRHGQNLESTRPGVEIQTYRQAVGVYGLITPWNFPIAIPAWKAAPALAFGNTVVIKPAGPTPATANVLADIMAECGAPAGVFNMLFGRGSMGDALIKHKDVDGVSFTGSQGVGAQVAAAAVARQARVQLEMGGKNPLIVLDDADLERAVAIALDGSFFATGQRCTASSRLIVQDGIHDKFVALLAEKVAALRVGDALDPNTQIGPAVSEDQMETSYRYIDIAASEGGRVVTGGDRIKLDNPGWYVRPTLIADTQAGMRINNEEVFGPVASTIRVKSYEEALEIANGVEFGLSAGIATTSLKHARHFQRYARAGMTMVNLATAGVDYHVPFGGTKSSSYGAREQGFAAVEFFTQTKTSYSWS
notes: as for B1
**Q.** How did the Km (purified protein [1]; co-substrate KGSA) turn out when B2 was run?
**A.** 600 µM

**Q.** What about the Vmax (purified protein [1]; co-substrate KGSA) of the same protein?
**A.** 49 µmol/min/mg

**Q.** What about the kcat (purified protein [1]; co-substrate KGSA) of the same protein?
**A.** 41 s⁻¹

**Q.** What about the kcat/Km (purified protein [1]; co-substrate KGSA) of the same protein?
**A.** 68000 M⁻¹ s⁻¹

**Q.** What about the Km (purified protein [3]) of the same protein?
**A.** 20 µM

**Q.** What about the Km (purified protein [4]) of the same protein?
**A.** 20 µM

**Q.** And the Vmax (purified protein [4])?
**A.** 49 µmol/min/mg

**Q.** And the kcat (purified protein [4])?
**A.** 41 s⁻¹

**Q.** And the kcat/Km (purified protein [4])?
**A.** 2.05e+06 M⁻¹ s⁻¹

**Q.** And the Km (purified protein [5])?
**A.** 400 µM

**Q.** And the Km (purified protein [6])?
**A.** 2510 µM

B3: Xylonolactonase (XLA) (Caulobacter vibrioides NA1000) (protein)
chain: MTAQVTCVWDLKATLGEGPIWHGDTLWFVDIKQRKIHNYHPATGERFSFDAPDQVTFLAPIVGATGFVVGLKTGIHRFHPATGFSLLLEVEDAALNNRPNDATVDAQGRLWFGTMHDGEENNSGSLYRMDLTGVARMDRDICITNGPCVSPDGKTFYHTDTLEKTIYAFDLAEDGLLSNKRVFVQFALGDDVYPDGSVVDSEGYLWTALWGGFGAVRFSPQGDAVTRIELPAPNVTKPCFGGPDLKTLYFTTARKGLSDETLAQYPLAGGVFAVPVDVAGQPQHEVRLV
notes: as for B1
**Q.** Which Km (purified protein [7]) does the source give for B3 here?
**A.** 450 µM

**Q.** And the Vmax (purified protein [7])?
**A.** 944 µmol/min/mg

**Q.** And the kcat (purified protein [7])?
**A.** 497 s⁻¹

**Q.** What about the kcat/Km (purified protein [7]) of the same protein?
**A.** 1.1e+06 M⁻¹ s⁻¹

B4: 2-Keto-3-deoxy-D-xylonate dehydratase (KDXD) (Caulobacter vibrioides NA1000) (protein)
chain: MGVSEFLPEDWKAATLLGRIDFGEGPTPVLVRGGRVEDVSKIAPTVADLMNAFQPGAVIPRGEDKGPLEALDIRPVWEDPDGAAPVKLLAPVDLQCLKAAGVTFAVSTLERVIEERARGDAGEALKIRTLLAERMGGDLKSVEPGSQGAQRLKDALIADGLWSQYLEVAIGPDAEIFTKGPTLSSMGWGDQVGVRYDSHWNNPEPEVVLLCDGSGLIRGAALGNDVNLRDFEGRSALLLSKAKDNNASCAIGPFFRLFDETFGLDDVRSAEVELKITGRDNFVLDGKSNMSLISRDPAVLAGQAYGKQHQYPDGFALFLGTMFAPIQDRDTPGQGFTHKVGDRVRVSTPKLGVLENEVTTCDKAKPWTFGISALIRNLAGRGLL
notes: as for B1
**Q.** Which results are given for B4?
**A.** Km (purified protein [8]): 210 µM; Vmax (purified protein [8]): 107 µmol/min/mg; kcat (purified protein [8]): 74 s⁻¹; kcat/Km (purified protein [8]): 352000 M⁻¹ s⁻¹
